Literature values, collected in patent US20230398266A1, “THERAPEUTIC AGENT FOR USE IN LOCAL TREATMENT OF INFLAMMATION ASSOCIATED WITH ATHEROSCLEROSIS AND/OR A THROMBOTIC STATE” (priority 2020, published 2023).

Columns and labels:
patients with COVID-19 = details: for side effects related to systemic administration: patients with COVID-19; for results in patients with COVID-19: systemic administration, preliminary studies
[1] = test system: patients with previous myocardial infarction and elevated inflammatory indices; details: systemic administration; compared to placebo

| Substance | side effects related to systemic administration (patients with COVID-19) | results in patients with COVID-19 (patients with COVID-19) | incidence of cardiovascular events (death from heart disease, myocardial infarction, cerebral stroke) [1] | incidence of serious side effects such as fatal sepsis and thrombocythemia [1] |
| --- | --- | --- | --- | --- |
| anakinra | severe side effects | encouraging results |  |  |
| canakinumab |  |  | lower incidence of cardiovascular events compared to placebo | higher incidence of serious side effects |
| tocilizumab | severe side effects | encouraging results |  |  |
